The values below come from patent publication US12527862B2, “Bactericidal/permeability increasing protein for use in a method of immunization, preferably as an adjuvant in a method of vaccination” (UNIVERSITÄT REGENSBURG, priority 2018, dated 2026).

The test system of assay [1] is murine dendritic cells (BMDC). Put plainly: TNFα ELISA in murine dendritic cells (BMDC). The format is cell-based. The following applies: LPS Ec 10 ng/ml or BPI 100 nM, 18 h, ELISA (FIG. 4A). As to the method: Generation of BMDM was carried out similarly to BMDCs; MCSF was used instead of GMSCF for differentiation of BMDM. Cells were re-plated on day 1 of culture and harvested on day 5. On day 1, cells were seeded in new plates and harvested on day 5 for the experiments. Cells were stimulated with LPS Ec (10 ng/ml) or BPI (100 nM) for 18 h before supernatants were collected. TNFα levels were determined by ELISA (OPTEIA™ Murine TNFα ELISA Set, BD Bioscience, Heidelberg, Germany).
On the technique in general: ELISA stands for enzyme-linked immunosorbent assay.

Assay [2] deals with bone marrow derived dendritic cells (BMDCs). Put plainly: FACS surface expression of maturation markers/costimulatory molecules on BMDCs. The format is cell-based, C57BL/6J mice. The settings on record: huBPI 200 nM, 18 h, vs unstimulated cells, n=4 (FIG. 1). As to the method: BMDCs were generated from the bone marrow of male C57BL/6J mice at the age of approximately 3 to 7 months, which were bred under SPF conditions. BMDCs were generated as previously described. BMDCs were harvested on day 7 by rinsing the dish in order to obtain the non-adherent and loosely-adherent cell fractions.
Cell Stimulation 5×10^4 BMDCs per well were seeded into a tissue-culture-treated 96-well plate in VLE-RPMI 1640 media (10% FCS, 10% Penicillin-Streptomycin, 50 µM β-Mercaptoethanol) and stimulated with 200 nM huBPI.
BMDCs were stimulated with huBPI (200 nM) for 18 h. After the stimulation period, the stimulated and unstimulated cells were incubated with Fc-Block and stained using the indicated antibodies (Table 1) and the respective isotype controls (Table 2). 7-Aminoactinomycin D (7-AAD, #00-6993-50, eBioscience) positive stained cells were excluded from the analysis. Flow cytometry measurement was performed using the instrument BD FACS Canto™ II (BD Bioscience). Data was analyzed using BD FACSDiva™ software v.7.0 (BD Bioscience) as well as FlowJo v.10 (Tree Star).

Assay [3] relates to human peripheral blood mononuclear cells. Description: Stimulation of human peripheral blood mononuclear cells, TNFα ELISA. The format is cell-based. The following applies: BPI 500 nM, 18 h. The method, then:
After informed consent, blood was drawn from healthy male volunteers using heparinized blood collection tubes and PBMCs were separated using leucosep tubes containing FICOLL® PAQUE PLUS (Oxford Immunotec, Abingdon, Great Britian) at 1,000×g for 10 min. The pellet was resuspended in AIM VR Medium (Thermo Fisher Scientific Inc., Waltham, MA, USA), counted, and cultivated in 96-well plates for 4 h (1×10^5/100 μl). Then cells were stimulated with (R)-Pam3CSK4 (bLP, 1 nM) or LTA S. pneumoniae Δlgt (a lipoprotein deficient strain, LTA SPΔlgt, 1 μM, n=4) in the presence or absence of BPI (500 nM). The supernatants were collected after 18 h for determination of cytokine concentration by ELISA according to the manufacturer's instructions (OPTEIA™ Human TNFα ELISA Set, BD Biosciences, Heidelberg, Germany).

B1: bactericidal/permeability-increasing protein (protein)
chain: RIKIPDYSDSFKIKHLGKGHYSFYSMDIREFQLPSSQISMVPNVGLKFSISNANIKISGKWKAQKRFLKMSGNFDLSIEGMSISADLKLGSNPTSGKPTITCSSCSSHINSVHVHISKSKVGWLIQLFHKKIESALRNKMNSQVCEKVTNSVSSELQPYFQTLPVMTKIDSVAGINYGLVAPPATTAETLDVQMKGEFYSENHHNPPPFAPPVMEFPAAHDRMVYLGLSDYFFNTAGLVYQEAGVLKMTLRDDMIPKESKFRLTTKFFGTFLPEVAKKFPNMKIQIHVSASTPPHLSVQPTGLTFYPAVDVQAFAVLPNSSLASLFLIGMHTTGSMEVSAESNRLVGELKLDRLLLELKHSNIGPFPVELLQDIMNYIVPILVLPRVNEKLQKGFPLPTPARVQLYNVVLQPHQNFLLFGADVVYK
modifications: labeled with NT647 (Monolith NT Protein Labeling Kit RED-NHS) in the MST experiments
notes: recombinant human BPI, aa32-487 of huBPI with N-terminal HA signal peptide, expressed in HEK293T cells
As for B1, the “TNFα secretion by dendritic cells” value in assay [1] was “secrete TNFα”. Besides, the “expression of costimulatory receptors CD40, CD80, and CD86” value in assay [2] was “promotes expression of costimulatory receptors CD40, CD80, and CD86”. Further, the “effect of BPI alone on PBMCs” value in assay [3] was “minor effect”.
